{"source": "paper PMC9785812", "about": "(Pharmaceutics, 2022)", "test": "Shelf life in radiolabeling buffer at room temperature (iTLC)", "assay_type": "physicochemical", "conditions": "radiolabeling buffer (0.15 M NaOAc, pH 4.7), up to 7 days, iTLC-SG, gamma counter", "description": "Radiolabeling was performed by adding up to 200 MBq of the ^153Sm radiolabeling solution to 20 nmol of the DOTA-TATE precursor dissolved in 0.15 M NaOAc buffer (pH 4.7) in a total reaction volume of 1 mL. The reaction vial was placed in a Thermomixer C (Eppendorf) to stir (500 rpm) and the mixture was heated to 95 °C for 15 min. After incubation, the radiolabeling yield was evaluated using thin-layer chromatography. An amount of 1–2 µL of the reaction mixture was spotted on a glass microfiber chromatography paper strip impregnated with silica gel (iTLC-SG, Agilent Technologies, Diegem, Belgium) that was eluted with a 0.5 M citrate solution (pH 5.5). After elution, the TLC papers were cut in half and the activity of the bottom and top part of the TLC paper was counted for 2 min each using an automated gamma counter.\nAfter 1 h, 3 days, 5 days and 7 days, a 5 µL sample was spotted on the TLC system described above to identify the intact fraction.", "data": [{"smiles": "C[C@@H](O)[C@H](NC(=O)[C@@H]1CSSC[C@H](NC(=O)[C@@H](Cc2ccccc2)NC(=O)CN2CCN(CC(=O)O)CCN(CC(=O)O)CCN(CC(=O)O)CC2)C(=O)N[C@@H](Cc2ccc(O)cc2)C(=O)N[C@H](Cc2c[nH]c3ccccc23)C(=O)N[C@@H](CCCCN)C(=O)N[C@@H]([C@@H](C)O)C(=O)N1)C(=O)O", "note": "[[^153Sm]Sm-DOTA-TATE, metal not drawn]", "values": [{"measurement": "radiochemical purity (intact fraction)", "value": "> 98", "unit": "%"}]}]}
